Values joined by “and” are separate entries in the source; they are usually repeats but may differ in a detail not shown here. Identical values can stand only once.
T1: SSB_BA (Bacillus anthracis, UniProt Q81JI3 1-172)
T1 sequence: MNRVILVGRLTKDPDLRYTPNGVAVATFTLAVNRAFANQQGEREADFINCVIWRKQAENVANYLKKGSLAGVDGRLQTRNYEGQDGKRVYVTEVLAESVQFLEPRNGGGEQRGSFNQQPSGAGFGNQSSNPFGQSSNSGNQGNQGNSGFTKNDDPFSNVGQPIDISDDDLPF

B1: Fl-(dT)20 (ssDNA)
DNA: TTTTTTTTTTTTTTTTTTTT
B2: Cy5-(dT)70-Cy3 (ssDNA)
DNA: TTTTTTTTTTTTTTTTTTTTTTTTTTTTTTTTTTTTTTTTTTTTTTTTTTTTTTTTTTTTTTTTTTTTTT

What was measured:
[1] = target: T1, SSB_BA; test: fluorescence anisotropy; […]) or 1 nM ([…]; FRET at 25 C; pH not given; settings: protein: recombinant; tags: none stated (pET29b); label: 5'-fluorescein
[2] = target: SSB_EC (Escherichia coli, UniProt P0AGE0 2-178); test: FRET titration; 25 C, 40 nM DNA (200 nM in Results text); high FRET peak at 0.44 uM, (SSB)35 mode at >=1.1 uM; Anisotropy: buffer B (composition not in material), 25 mM KCl, 5 mM Mg2+, 25 C, 0.1 nM (Results) or 1 nM (Methods) Fl-(dT)20; temperature series 20-37 C with 25 mM NaCl and glycerol; salt series 0-200/250 mM NaCl at 25 C; FRET at 25 C; pH not given; settings: chain copies: 4; label: 5'-Cy5; 3'-Cy3
[3] = target: T1, SSB_BA; test: FRET titration; […]) or 1 nM ([…]; FRET at 25 C; pH not given; settings: protein: recombinant; tags: none stated (pET29b); label: 5'-Cy5; 3'-Cy3

Chain of SSB_EC (P0AGE0 2-178): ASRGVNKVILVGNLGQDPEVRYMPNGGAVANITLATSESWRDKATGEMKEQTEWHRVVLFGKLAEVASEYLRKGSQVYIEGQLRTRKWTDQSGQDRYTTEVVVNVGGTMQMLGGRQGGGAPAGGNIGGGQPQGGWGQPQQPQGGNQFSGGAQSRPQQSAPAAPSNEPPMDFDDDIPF

| Binder | Kd [1] | binding result [2] | binding result [3] |
| --- | --- | --- | --- |
| B1 | 1 nM and 1.2 nM | – | – |
| B2 | – | binds | binds |
